Results from publication PMC3742539, “ε Subunit of Bacillus subtilis F1-ATPase Relieves MgADP Inhibition” (PLoS ONE, 2013).

Target: T1, γ^S3C subunit of BF1 (Bacillus subtilis, UniProt P37810 1-287, S3C)
T1 construct: F1-ATPase γ subunit, Bacillus subtilis, with γSer3 to Cys; Stood in the assay as a subunit of the α3β3γ^S3C complex, never isolated alone; source: E. coli BL21(DE3), co-expressed with α and His6-β, purified as part of the α3β3γ^S3C complex
Experiment: cross-linking; disulfide cross-linking without ATP: α3β3γ^S3C and ε^133C mixed 1:10, excess ε removed by ultrafiltration (100-kDa cutoff), 50 µM CuCl2, 1 h, 25 °C, 50 mM Tris-H2SO4 pH 7.5, 50 mM K2SO4; non-reducing SDS-PAGE
Conditions: both partners purified

binding result: binds
B1: mutant BF1 ε subunit (133C, a Cys introduced at the C-terminus) (natural protein, Bacillus subtilis, UniProt P37812 1-132, looked up)
chain: MKTVKVNIVTPDGPVYDADIEMVSVRAESGDLGILPGHIPTVAPLKIGAVRLKKDGQTEMVAVSGGFVEVRPDHVTILAQAAETAEGIDKERAEAARQRAQERLNSQSDDTDIRRAELALQRALNRLDVAGKC
